For experiment [1], the target named is T1, human factor D (human, UniProt P00746 26-253). Put plainly: cell-based or functional assay.
The target in experiment [2] is T1, human factor D. The experiment is described as follows: cell-based or functional assay. The source holds these as a separate data set.
In experiment [3] the target is T1, human factor D. The experiment is described as follows: SPR Biacore T200, Fab captured by anti-huFab, human fD injected, 25 C. As for the experimental part: Antibody Fab fragments were immobilized on a Series S CM5 sensor chip using the anti-huFab capture kit (GE healthcare Cat. #28-9583-25) following a protocol described by the manufacturer. Kinetics of binding were calculated from sensorgrams recorded for injection of 60 μL aliquots of solutions of human factor D varied in concentration from 0.39 nM to 25 nM in 2-fold increments. The flow rate was 30 μL/minute, the running buffer was HBS-P+, the temperature of analysis was 25° C., real-time reference cell subtraction was employed, and dissociation following factor D injection was followed for 10 minutes. After subtraction of the sensorgram observed for injection of running buffer, data were analyzed according to a 1:1 model using BiaEval software v4.1 (GE Healthcare) to extract the kinetics and affinity constants.

Experiment [4] has as its target T1, human factor D. The experiment is described as follows: cell-based or functional assay. The source holds these as a separate data set.
In experiment [5] the target is T1, human factor D. The experiment is described as follows: SPR total binding to fD over time; Fab 10 mg/mL in pH 5.5 buffer (FIG. 2A), one month.
The target of experiment [6] is T1, human factor D. Put plainly: SPR total binding to fD over time; Fab 100 mg/mL in PBS, 37 C, 10 weeks (FIG. 2B).
Experiment [7] deals with T1, human factor D. The experiment is described as follows: SPR, captured Fab, fD injected.

Substitutions are numbered along the chain they refer to. Numbers in names are those of the source. Some results are limits rather than exact numbers.

T1 sequence (P00746 26-253 limits assumed): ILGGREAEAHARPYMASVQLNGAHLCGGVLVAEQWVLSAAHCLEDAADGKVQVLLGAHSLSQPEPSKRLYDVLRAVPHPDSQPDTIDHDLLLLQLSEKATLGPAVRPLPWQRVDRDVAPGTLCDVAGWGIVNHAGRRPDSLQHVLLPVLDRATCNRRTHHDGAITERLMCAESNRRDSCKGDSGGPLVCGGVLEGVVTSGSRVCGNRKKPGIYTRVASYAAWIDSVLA

B1: AFD.v14.C+TP octamer (Cys-modified AFD.v14-8ARM (TP)-PEG-MAL conjugate) (other)
light: DIQVTQSPSSLSASVGDRVTITCITSTSIESDMNWYQQKPGKVPKLLISGGNTLRPGVPSRFSGSGSGTDFTLTISSLQPEDVATYYCLQSDSLPYTFGQGTKVEIKRTVAAPSVFIFPPSDEQLKSGTASVVCLLNNFYPREAKVQWKVDNALQSGNSQESVTEQDSKDSTYSLSSTLTLSKADYEKHKVYACEVTHQGLSSPVTKSFNRGEC
heavy: EVQLVQSGPELKKPGASVKVSCKASGYTFTNYGMNWVRQAPGQGLEWMGWINTYTGETTYAEDFKGRFVFSLDTSVSTAYLQISSLKAEDTAVYYCEREGGVSNWGQGTLVTVSSASTKGPSVFPLAPSSKSTSGGTAALGCLVKDYFPEPVTVSWNSGALTSGVHTFPAVLQSSGLYSLSSVVTVPSSSLGTQTYICNVNHKPSNTKVDKKVEPKSCDKTHTC
modifications: C-terminal Cys linked through maleimide to one arm of a 40,000 MW eight-armed PEG with tripentaerythritol (TP) core (8ARM (TP)-PEG-MAL, JenKem)
In the case of B1, in the experiment with human factor D [1], the “Average IC50 fB Activation (pM), TR-FRET, 125 pM fD; AFD.v14 TP octamer (CEX pool)” value came out at 77 pM and the “Average IC50 fB Activation (pM), TR-FRET, 125 pM fD; AFD.v14 TP octamer (S200 pool)” value amounted to 104 pM.

B2: AFD.v14 tetramer (AFD.v14.C conjugated to Sunbright PTE-400MA four-armed PEG) (other)
light: B1 light
heavy: B1 heavy
modifications: C-terminal Cys linked through maleimide to one arm of a 40,000 MW four-armed PEG (Sunbright PTE-400MA)
Regarding B2, the “Average IC50 fB Activation (pM), TR-FRET, 50 pM fD” value in the experiment with human factor D [2] turned out to be 14.8 pM.

B3: AFD.v8 tetramer (AFD.v8.C conjugated to Sunbright PTE-400MA four-armed PEG) (other)
light: B1 light
heavy: B1 heavy with S103N
modifications: C-terminal Cys linked through maleimide to one arm of a 40,000 MW four-armed PEG (Sunbright PTE-400MA)
In the case of B3, the “Average IC50 fB Activation (pM), TR-FRET, 50 pM fD” value with human factor D [2] came out at 11 pM.

B4: AFD.v1 (VL-D28S) (Fab, V domains shown)
VH: EVQLVQSGPELKKPGASVKVSCKASGYTFTNYGMNWVRQAPGQGLEWMGWINTYTGETTYADDFKGRFVFSLDTSVSTAYLQISSLKAEDTAVYYCEREGGVNNWGQGTLVTVSS
VL: DIQVTQSPSSLSASVGDRVTITCITSTSIDDDMNWYQQKPGKVPKLLISGGNTLRPGVPSRFSGSGSGTDFTLTISSLQPEDVATYYCLQSDSLPYTFGQGTKVEIKR
notes: Fab variant of aFD.WT
Consider B4, for which the Kd with human factor D [3] is no more than 0.01 nM.

B5: AFD.v14.C (Cys-modified AFD.v14 variant, Fab-C) (Fab, V domains shown)
VH: B4 VH with D62E, N103S
VL: B4 VL with D30E, D31S
Take B5: in the experiment with human factor D [1], the “Average IC50 fB Activation (pM), TR-FRET, 125 pM fD” value was 72 pM.

B6: AFD.v4 (VL-D32S) (Fab, V domains shown)
VH: B4 VH
VL: B4 VL with S28D, D32S
notes: Fab variant of aFD.WT
Consider B6, for which binding in the experiment with human factor D [3] was characterised by a dissociation constant (Kd) of 0.026 nM.

B7: AFD.v11 (VL-D28S:D30E:D31S VH-D62E VH-N52S) (Fab, V domains shown)
VH: B4 VH with N52S, D62E
VL: B4 VL with D30E, D31S
notes: Fab variant of aFD.WT; also called SIESD + VH-N52S
With B7, binding with human factor D [3] was characterised by a dissociation constant (Kd) of 0.07 nM.

B8: AFD.v8 (SIESD; VL-D28S:D30E:D31S VH-D62E) (Fab, V domains shown)
VH: B4 VH with D62E
VL: B4 VL with D30E, D31S
notes: Fab; also called SIESD (AFD.v8)
On to B8, for which, in the experiment with human factor D [2], the “Average IC50 fB Activation (pM), TR-FRET, 50 pM fD” value is 27.6 pM. The “IC50 (nM) AP Hemolysis (rabbit erythrocytes, C1q-depleted human serum)” value (from here on “IC50 (nM) AP Hemolysis”) with human factor D [4] was 4.2 nM. Further, in the experiment with human factor D [3], binding was put at a Kd of 0.0167 nM.

B9: AFD.v13 (SIESD.N103Q; VL-D28S:D30E:D31S VH-D62E VH-N103Q) (Fab, V domains shown)
VH: B4 VH with D62E, N103Q
VL: B4 VL with D30E, D31S
notes: Fab variant of aFD.WT
The molecule B9 gave a Kd with human factor D [3] of 0.06 nM.

B10: AFD.v2 (VL-D30E) (Fab, V domains shown)
VH: B4 VH
VL: B4 VL with S28D, D30E
notes: Fab variant of aFD.WT; also called D30E (AFD.v2)
Consider B10, for which the loss in binding with human factor D [5] is roughly 40%; with human factor D [6], roughly 20%. This molecule also returned a Kd with human factor D [3] of no more than 0.01 nM.

B11: AFD.v14 (SIESD.N103S; VL-D28S:D30E:D31S VH-D62E VH-N103S) (Fab, V domains shown)
VH: B4 VH with D62E, N103S
VL: B4 VL with D30E, D31S
notes: Fab; also called SIESD.N103S (AFD.v14); AFD.14
B11: in the experiment with human factor D [2], the “Average IC50 fB Activation (pM), TR-FRET, 50 pM fD” value was 34 pM. Moreover, the “IC50 (nM) AP Hemolysis” value with human factor D [4] was 4.1 nM. Further, the “Average IC50 fB Activation (pM), TR-FRET, 125 pM fD” value with human factor D [1] came out at 87 pM. This molecule had a loss in binding in the experiment with human factor D [6] of 10%. Besides, the Kd with human factor D [3] was 0.0256 nM.

B12: AFD.v3 (VL-D31S) (Fab, V domains shown)
VH: B4 VH
VL: B4 VL with S28D, D31S
notes: Fab variant of aFD.WT
B12 had an equilibrium dissociation constant (Kd) in the experiment with human factor D [3] of no more than 0.01 nM.

B13: AFD.v7 (TM.D92E; VL-D30E:D31S VH-D62E VL-D92E) (Fab, V domains shown)
VH: B4 VH with D62E
VL: B4 VL with S28D, D30E, D31S, D92E
notes: Fab variant of aFD.WT; also called TM.D92E (AFD.v7)
In the case of B13, the “IC50 (nM) AP Hemolysis” value in the experiment with human factor D [4] is 3.8 nM. In the experiment with human factor D [3], the Kd is no more than 0.01 nM.

B14: AFD.v5 (VL-D28S:D31S:D32S) (Fab, V domains shown)
VH: B4 VH
VL: B4 VL with D31S, D32S
notes: Fab variant of aFD.WT
Take B14: binding with human factor D [3] was characterised by a dissociation constant (Kd) of 0.28 nM.

B15: AFD.v9 (VL-D28S:D30E:D31S VH-D62E VL-N34S) (Fab, V domains shown)
VH: B4 VH with D62E
VL: B4 VL with D30E, D31S, N34S
notes: Fab variant of aFD.WT; also called SIESD + VL-N34S
B15 had an equilibrium dissociation constant (Kd) with human factor D [3] of 0.03 nM.

B16: AFD.v15 (SIESD.N103S.D92E; VL-D28S:D30E:D31S:D92E VH-D62E:N103S) (Fab, V domains shown)
VH: B4 VH with D62E, N103S
VL: B4 VL with D30E, D31S, D92E
notes: Fab variant of aFD.WT
Turning to B16, the “fold decrease in affinity against SIESD.N103S (AFD.v14)” value with human factor D [7] was 4 fold. The same molecule showed a dissociation constant (Kd) with human factor D [3] of 0.102 nM.

B17: AFD.v6 (TM; VL-D30E:D31S VH-D62E) (Fab, V domains shown)
VH: B4 VH with D62E
VL: B4 VL with S28D, D30E, D31S
notes: Fab variant of aFD.WT; also called TM (AFD.v6)
In the case of B17, the results for the loss in binding with human factor D [5] and with human factor D [6] were roughly 40% and roughly 20%, respectively. The molecule further returned a Kd with human factor D [3] of no more than 0.01 nM.

B18: AFD.v12 (SIESD.N103D; VL-D28S:D30E:D31S VH-D62E VH-N103D) (Fab, V domains shown)
VH: B4 VH with D62E, N103D
VL: B4 VL with D30E, D31S
notes: Fab variant of aFD.WT
Consider B18, for which the dissociation constant (Kd) with human factor D [3] stood at 0.023 nM.

B19: AFD.v10 (SIESD.D92E; VL-D28S:D30E:D31S VH-D62E VL-D92E) (Fab, V domains shown)
VH: B4 VH with D62E
VL: B4 VL with D30E, D31S, D92E
notes: Fab variant of aFD.WT
In the case of B19, binding with human factor D [3] was put at a Kd of 0.07 nM.

Source of the values: patent US20170143843A1 (Genentech, published 2017).
